Assay results reported in patent publication EP4613276A2 (Actym Therapeutics, Inc., dated 2025).

Columns and labels:
[1] = biological target: recombinant murine CTLA-4-human IgG1 Fc chimera (R&D Systems) (mouse; human) (UniProt P09793); assay: competitive ELISA: HEK293T supernatant mixed with 10 ng/ml murine CTLA-4-human IgG1 Fc, on coated mouse CD80 (competitor); anti-human IgG1-HRP detection
[2] = biological target: recombinant murine CTLA-4-human IgG1 Fc chimera (R&D Systems) (mouse; human) (UniProt P09793); assay: competitive ELISA: HEK293T supernatant mixed with 10 ng/ml murine CTLA-4-human IgG1 Fc, on coated mouse CD86 (competitor); anti-human IgG1-HRP detection
[3] = biological target: mouse TGF-β1 (R&D Systems) (mouse) (UniProt P04202); assay: direct ELISA with mouse TGF-β1 on concentrated HEK293T supernatant (media control 0.041 ± 0.002)
[4] = biological target: mouse TGF-β1 (R&D Systems) (mouse) (UniProt P04202); assay: direct ELISA with mouse TGF-β1 on HEK293T supernatant (media control 0.041 ± 0.002)
[5] = biological target: CD3 on Jurkat-Lucia™ NFAT cells (Homo sapiens (Human)) (UniProt P07766); assay: flow cytometry on Jurkat-Lucia NFAT cells, BiTE detected with anti-FLAG-APC (anti-FLAG-APC only: 1519)
[6] = biological target: CD3 on Jurkat-Lucia™ NFAT cells (Homo sapiens (Human)) (UniProt P07766); assay: flow cytometry on Jurkat-Lucia NFAT cells, concentrated supernatant, BiTE detected with anti-FLAG-APC (anti-FLAG-APC only: 1519)
[7] = biological target: CD3 on Jurkat-Lucia™ NFAT cells (Homo sapiens (Human)) (UniProt P07766); assay: cell-based or functional assay
CD19 on Raji cells [8] = biological target: CD19 on Raji cells (UniProt P15391); assay: flow cytometry on Raji cells, BiTE detected with anti-FLAG-APC (anti-FLAG-APC only: 1439)
CD19 on Raji cells [9] = biological target: CD19 on Raji cells (UniProt P15391); assay: flow cytometry on Raji cells, concentrated supernatant, BiTE detected with anti-FLAG-APC (anti-FLAG-APC only: 1439)
[10] = biological target: T1, recombinant murine CTLA-4-human IgG1 Fc chimera (R&D Systems) (mouse; human, UniProt P09793 36-162; P01857 100-330 = IgG part, limits assumed); assay: direct ELISA of transfected HEK293T supernatant on mouse CTLA-4-Fc; the grade is printed as the payload's expression level
T1 construct: Bought reagent; also called mouse CTLA-4-Fc

CD3 on Jurkat-Lucia™ NFAT cells (Homo sapiens (Human)), sequence (P07766 23-207 limits assumed, form in doubt, chain 1 of 3): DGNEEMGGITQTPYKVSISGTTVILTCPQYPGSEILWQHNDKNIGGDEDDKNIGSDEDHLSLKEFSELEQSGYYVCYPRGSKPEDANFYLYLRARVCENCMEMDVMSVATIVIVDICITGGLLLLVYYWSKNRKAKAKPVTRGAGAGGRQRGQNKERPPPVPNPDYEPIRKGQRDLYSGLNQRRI
CD3 on Jurkat-Lucia™ NFAT cells (Homo sapiens (Human)), sequence (delta, as listed by the source limits assumed, form in doubt, chain 2 of 3): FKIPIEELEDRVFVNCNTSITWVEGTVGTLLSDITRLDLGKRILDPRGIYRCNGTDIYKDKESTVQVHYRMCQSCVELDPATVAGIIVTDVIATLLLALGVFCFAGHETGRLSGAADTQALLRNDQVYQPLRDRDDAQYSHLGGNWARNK
CD3 on Jurkat-Lucia™ NFAT cells (Homo sapiens (Human)), sequence (gamma, as listed by the source limits assumed, form in doubt, chain 3 of 3): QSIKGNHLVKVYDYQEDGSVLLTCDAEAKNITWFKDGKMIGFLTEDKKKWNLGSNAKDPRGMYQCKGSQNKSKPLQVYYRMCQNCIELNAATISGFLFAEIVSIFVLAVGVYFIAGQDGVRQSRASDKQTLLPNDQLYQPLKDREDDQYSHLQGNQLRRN
mouse TGF-β1 (R&D Systems) (mouse), sequence (P04202 279-390 limits assumed): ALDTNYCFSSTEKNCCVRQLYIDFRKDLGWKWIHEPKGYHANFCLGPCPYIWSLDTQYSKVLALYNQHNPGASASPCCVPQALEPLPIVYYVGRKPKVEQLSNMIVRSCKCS
CD19 on Raji cells, sequence (P15391 20-556 limits assumed): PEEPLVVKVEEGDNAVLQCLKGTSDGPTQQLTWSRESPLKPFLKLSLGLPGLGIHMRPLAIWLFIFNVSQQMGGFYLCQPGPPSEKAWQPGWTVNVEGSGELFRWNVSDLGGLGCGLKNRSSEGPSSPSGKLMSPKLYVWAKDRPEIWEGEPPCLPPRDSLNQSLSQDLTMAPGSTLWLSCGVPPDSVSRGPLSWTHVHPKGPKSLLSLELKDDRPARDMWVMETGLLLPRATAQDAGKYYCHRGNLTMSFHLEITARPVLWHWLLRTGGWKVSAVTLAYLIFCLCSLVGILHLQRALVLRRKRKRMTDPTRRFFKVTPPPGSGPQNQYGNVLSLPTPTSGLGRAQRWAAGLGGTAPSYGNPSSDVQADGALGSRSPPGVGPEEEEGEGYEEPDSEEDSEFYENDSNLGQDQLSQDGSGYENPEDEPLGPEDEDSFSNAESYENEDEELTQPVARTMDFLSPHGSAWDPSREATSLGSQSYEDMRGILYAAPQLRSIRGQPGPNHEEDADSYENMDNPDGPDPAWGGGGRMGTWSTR

Work on “anti-CTLA-4 scFv (ipilimumab scFv antibody fragment)” yielded a % CD80 Blockade Activity [1] of 7% and a % CD86 Blockade Activity [2] of 32.5%.

“Soluble mouse TGFβ receptor II-Fc (Fc fusion)” gave an Absorbance at 450 nm (absorbance at 450 nm) [3] of 1.52 and an Absorbance at 450 nm (absorbance at 450 nm) [4] of 1.51.

Molecule “CD3xCD19 bispecific T-cell engager (BiTE®), containing a FLAG tag and a His tag (bispecific antibody)” has a Mean Fluorescence Intensity (MFI) of APC+ Cells [5] of 4580 MFI, a Mean Fluorescence Intensity (MFI) of APC+ Cells [6] of 14100 MFI and a Luminescence (NFAT reporter), 1 Raji: 1 Jurkat, 6 hour time point, CD3xCD19 BiTE® [7] of 2060 Luminescence. The Luminescence (NFAT reporter), 1 Raji: 1 Jurkat, 6 hour time point, concentrated CD3xCD19 BiTE® [7] was 4340 Luminescence, the Luminescence (NFAT reporter), 1 Raji: 1 Jurkat, 24 hour time point, CD3xCD19 BiTE® [7] was 6020 Luminescence and the Luminescence (NFAT reporter), 1 Raji: 1 Jurkat, 24 hour time point, concentrated CD3xCD19 BiTE® [7] was 18600 Luminescence. For the same molecule, the Luminescence (NFAT reporter), 2 Raji: 1 Jurkat, 6 hour time point, CD3xCD19 BiTE® [7] was 3440 Luminescence, the Luminescence (NFAT reporter), 2 Raji: 1 Jurkat, 6 hour time point, concentrated CD3xCD19 BiTE® [7] was 12100 Luminescence and the Luminescence (NFAT reporter), 2 Raji: 1 Jurkat, 24 hour time point, CD3xCD19 BiTE® [7] was 11300 Luminescence. The Luminescence (NFAT reporter), 2 Raji: 1 Jurkat, 24 hour time point, concentrated CD3xCD19 BiTE® [7] was 47200 Luminescence, the Mean Fluorescence Intensity (MFI) of APC+ Cells (CD19 on Raji cells [8]) was 7410 MFI and the Mean Fluorescence Intensity (MFI) of APC+ Cells (CD19 on Raji cells [9]) was 16000 MFI.

B1: anti-murine CTLA-4 scFv (derived from the 9D9 clone) (scFv)
scFv: DIVMTQTTLSLPVSLGDQASISCRSSQSIVHSNGNTYLEWYLQKPGQSPKLLIYKVSNRFSGVPDRFSGSGSGTDFTLKISRVEAEDLGVYYCFQGSHVPYTFGGGTKLEIKGGGGSGGGGSGGGGSEAKLQESGPVLVKPGASVKMSCKASGYTFTDYYMNWVKQSHGKSLEWIGVINPYNGDTSYNQKFKGKATLTVDKSSSTAYMELNSLTSEDSAVYYCARYYGSWFAYWGQGTLVTVSS
notes: Tested as HEK293T supernatant; also called anti-muCTLA-4 scFv
B1: binds [10].

B2: anti-murine CTLA-4 scFv-Fc (derived from the 9D9 clone, mouse IgG2a Fc) (Fc fusion)
chain: DIVMTQTTLSLPVSLGDQASISCRSSQSIVHSNGNTYLEWYLQKPGQSPKLLIYKVSNRFSGVPDRFSGSGSGTDFTLKISRVEAEDLGVYYCFQGSHVPYTFGGGTKLEIKGGGGSGGGGSGGGGSEAKLQESGPVLVKPGASVKMSCKASGYTFTDYYMNWVKQSHGKSLEWIGVINPYNGDTSYNQKFKGKATLTVDKSSSTAYMELNSLTSEDSAVYYCARYYGSWFAYWGQGTLVTVSSEPRGPTIKPCPPCKCPAPNLLGGPSVFIFPPKIKDVLMISLSPIVTCVVVDVSEDDPDVQISWFVNNVEVHTAQTQTHREDYNSTLRVVSALPIQHQDWMSGKEFKCKVNNKDLPAPIERTISKPKGSVRAPQVYVLPPPEEEMTKKQVTLTCMVTDFMPEDIYVEWTNNGKTELNYKNTEPVLDSDGSYFMYSKLRVEKKNWVERNSYSCSVVHEGLHNHHTTKSFSRTPGK
notes: Tested as HEK293T supernatant; also called anti-muCTLA-4 scFv-Fc
B2: binds [10].
